This is an account of results in the supplement of paper PMC5998384.

Series [1] has as its system HeLa Kyoto. Nature of the series: solubility in G1/S (NP-40 vs SDS abundance) (log2 ratio); higher = more soluble. The following applies: cell cycle stage: G1/S.
Series [2] deals with HeLa Kyoto. Description: melting temperature (median over replicates), in situ; higher = more thermally stable.
The subject of series [3] is HeLa Kyoto. Nature of the series: solubility change mitosis vs G1/S (difference of NP-40 vs SDS log2 ratios) (log2 ratio difference); higher = more soluble in mitosis.
Series [4] concerns HeLa Kyoto. Nature of the series: thermal stability score vs G1/S (z-score of summed log2 fold changes over temperatures); higher = more thermally stable than in G1/S.
The mark [5] stands for this setting: cell cycle stage: early G1 (4.5 h after nocodazole release).
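Wherever melting temperature (median over replicates), in situ is given: HeLa Kyoto cells synchronized by double thymidine or nocodazole block, proteins quantified by TMT10plex mass spectrometry, three independent biological replicates.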
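Wherever solubility change mitosis vs G1/S (difference of NP-40 vs SDS log2 ratios) is given: synchronized HeLa Kyoto cells (double thymidine block for G1/S, nocodazole release for mitosis), protein amounts in NP-40 versus SDS lysates quantified by mass spectrometry, three biological replicates.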
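Wherever solubility in G1/S (NP-40 vs SDS abundance) is given: HeLa Kyoto cells arrested at G1/S by double thymidine block, proteins quantified by TMT10plex mass spectrometry in mild NP-40 versus SDS extracts, three biological replicates.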
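Wherever thermal stability score vs G1/S (z-score of summed log2 fold changes over temperatures) is given: synchronized HeLa Kyoto cells, proteins quantified by TMT10plex mass spectrometry, three biological replicates, mitosis taken 0.5 h after nocodazole release, G1/S directly after double thymidine block.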

As to “MAGSSEEAPDYGRGVVIMDDWPGYDLNLFTYPQHYYGDLEYVLIPHGIIVDRIERLAKDIMKDIGYSDIMVLCVLKGGYKFCADLVEHLKNISRNSDRFVSMKVDFIRLKSYRNDQSMGEMQIIGGDDLSTLAGKNVLIVEDVVGTGRTMKALLSNIEKYKPNMIKVASLLVKRTSRSDGFRPDYAGFEIPNLFVVGYALDYNEYFRDLNHICVINEHGKEKYRV [PRTFDC1]”, in the series on HeLa Kyoto [1], the “solubility in G1/S (log2)” value was -0.298. Besides, the values for the melting temperature in the series on HeLa Kyoto [2] (cell cycle stage: G1/S) and with HeLa Kyoto [2] (cell cycle stage: mitosis) were 56.5 °C and 55.5 °C, respectively. Further, in the series with HeLa Kyoto [3], the “solubility change mitosis (log2)” value is -0.113. Further, the values for the thermal stability score in the series with HeLa Kyoto [4] (setting [5]) and with HeLa Kyoto [4] (cell cycle stage: mitosis) were -0.858 and -0.334, respectively.

“MAGSSTGGGGVGETKVIYHLDEEETPYLVKIPVPAERITLGDFKSVLQRPAGAKYFFKSMDQDFGVVKEEISDDNARLPCFNGRVVSWLVSSDNPQPEMAPPVHEPRAELAPPAPPLPPLPPERTSGIGDSRPPSFHPNVSSSHENLEPETETESVVSLRRERPRRRDSSEHGAGGHRTGGPSRLERHLAGYESSSTLMTSELESTSLGDSDEEDTMSRFSSSTEQSSASRLLKRHRRRRKQRPPRLERTSSFSSVTDSTMSLNIITVTLNMEKYNFLGISIVGQSNERGDGGIYIGSIMKGGAVAADGRIEPGDMLLQVNDMNFENMSNDDAVRVLRDIVHKPGPIVLTVAKCWDPSPQAYFTLPRNEPIQPIDPAAWVSHSAALTGTFPAYPGSSSMSTITSGSSLPDGCEGRGLSVHTDMASVTKAMAAPESGLEVRDRMWLKITIPNAFLGSDVVDWLYHHVEGFPERREARKYASGLLKAGLIRHTVNKITFSEQCYYVFGDLSGGCESYLVNLSLNDNDGSSGASDQDTLAPLPGATPWPLLPTFSYQYPAPHPYSPQPPPYHELSSYTYGGGSASSQHSEGSRSSGSTRSDGGAGRTGRPEERAPESKSGSGSESEPSSRGGSLRRGGEASGTSDGGPPPSRGSTGGAPNLRAHPGLHPYGPPPGMALPYNPMMVVMMPPPPPPVPPAVQPPGAPPVRDLGSVPPELTASRQSFHMAMGNPSEFFVDVM [DVL2]”: the “solubility in G1/S (log2)” value in the series with HeLa Kyoto [1] was -0.00889. For the same sequence, the values for the melting temperature in the series on HeLa Kyoto [2] (cell cycle stage: G1/S) and in the series with HeLa Kyoto [2] (cell cycle stage: mitosis) were 47 °C and 48.7 °C, respectively. The “solubility change mitosis (log2)” value in the series with HeLa Kyoto [3] was -0.0693. The thermal stability score in the series on HeLa Kyoto [4] (setting [5]) came to 0.348; in the series on HeLa Kyoto [4] (cell cycle stage: mitosis), 0.985.

For “MAGSVGLALCGQTLVVRGGSRFLATSIASSDDDSLFIYDCSAAEKKSQENKGEDAPLDQGSGAILASTFSKSGSYFALTDDSKRLILFRTKPWQCLSVRTVARRCTALTFIASEEKVLVADKSGDVYSFSVLEPHGCGRLELGHLSMLLDVAVSPDDRFILTADRDEKIRVSWAAAPHSIESFCLGHTEFVSRISVVPTQPGLLLSSSGDGTLRLWEYRSGRQLHCCHLASLQELVDPQAPQKFAASRIAFWCQENCVALLCDGTPVVYIFQLDARRQQLVYRQQLAFQHQVWDVAFEETQGLWVLQDCQEAPLVLYRPVGDQWQSVPESTVLKKVSGVLRGNWAMLEGSAGADASFSSLYKATFDNVTSYLKKKEERLQQQLEKKQRRRSPPPGPDGHAKKMRPGEATLSC [WDR4]”, in the series with HeLa Kyoto [1], the “solubility in G1/S (log2)” value is -0.256. The results for the melting temperature in the series with HeLa Kyoto [2] (cell cycle stage: G1/S) and in the series on HeLa Kyoto [2] (cell cycle stage: mitosis) were 52.8 °C and 53.9 °C, respectively. The “solubility change mitosis (log2)” value in the series on HeLa Kyoto [3] was -0.396. For the same sequence, the figures for the thermal stability score with HeLa Kyoto [4] (setting [5]) and in the series with HeLa Kyoto [4] (cell cycle stage: mitosis) were 0.0653 and -0.0979, respectively.

Take “MAGTRWVLGALLRGCGCNCSSCRRTGAACLPFYSAAGSIPSGVSGRRRLLLLLGAAAAAASQTRGLQTGPVPPGRLAGPPAVATSAAAAAAASYSALRASLLPQSLAAAAAVPTRSYSQESKTTYLEDLPPPPEYELAPSKLEEEVDDVFLIRAQGLPWSCTMEDVLNFFSDCRIRNGENGIHFLLNRDGKRRGDALIEMESEQDVQKALEKHRMYMGQRYVEVYEINNEDVDALMKSLQVKSSPVVNDGVVRLRGLPYSCNEKDIVDFFAGLNIVDITFVMDYRGRRKTGEAYVQFEEPEMANQALLKHREEIGNRYIEIFPSRRNEVRTHVGSYKGKKIASFPTAKYITEPEMVFEEHEVNEDIQPMTAFESEKEIELPKEVPEKLPEAADFGTTSSLHFVHMRGLPFQANAQDIINFFAPLKPVRITMEYSSSGKATGEADVHFETHEDAVAAMLKDRSHVHHRYIELFLNSCPKGK [GRSF1]”: the “solubility in G1/S (log2)” value with HeLa Kyoto [1] was determined as 0.345. Also, the melting temperature in the series with HeLa Kyoto [2] (cell cycle stage: G1/S) turned out to be 47.9 °C; in the series on HeLa Kyoto [2] (cell cycle stage: mitosis), 49.1 °C. Further, the “solubility change mitosis (log2)” value in the series with HeLa Kyoto [3] was -0.0298. For the same sequence, the thermal stability score in the series with HeLa Kyoto [4] (setting [5]) stood at 0.523; in the series with HeLa Kyoto [4] (cell cycle stage: mitosis), 3.06.

On to “MAGTVVLDDVELREAQRDYLDFLDDEEDQGIYQSKVRELISDNQYRLIVNVNDLRRKNEKRANRLLNNAFEELVAFQRALKDFVASIDATYAKQYEEFYVGLEGSFGSKHVSPRTLTSCFLSCVVCVEGIVTKCSLVRPKVVRSVHYCPATKKTIERRYSDLTTLVAFPSSSVYPTKDEENNPLETEYGLSVYKDHQTITIQEMPEKAPAGQLPRSVDVILDDDLVDKAKPGDRVQVVGTYRCLPGKKGGYTSGTFRTVLIACNVKQMSKDAQPSFSAEDIAKIKKFSKTRSKDIFDQLAKSLAPSIHGHDYVKKAILCLLLGGVERDLENGSHIRGDINILLIGDPSVAKSQLLRYVLCTAPRAIPTTGRGSSGVGLTAAVTTDQETGERRLEAGAMVLADRGVVCIDEFDKMSDMDRTAIHEVMEQGRVTIAKAGIHARLNARCSVLAAANPVYGRYDQYKTPMENIGLQDSLLSRFDLLFIMLDQMDPEQDREISDHVLRMHRYRAPGEQDGDAMPLGSAVDILATDDPNFSQEDQQDTQIYEKHDNLLHGTKKKKEKMVSAAFMKKYIHVAKIIKPVLTQESATYIAEEYSRLRSQDSMSSDTARTSPVTARTLETLIRLATAHAKARMSKTVDLQDAEEAVELVQYAYFKKVLEKEKKRKKRSEDESETEDEEEKSQEDQEQKRKRRKTRQPDAKDGDSYDPYDFSDTEEEMPQVHTPKTADSQETKESQKVELSESRLKAFKVALLDVFREAHAQSIGMNRLTESINRDSEEPFSSVEIQAALSKMQDDNQVMVSEGIIFLI [MCM3]”, for which the “solubility in G1/S (log2)” value in the series on HeLa Kyoto [1] is 0.00594. In addition, the melting temperature in the series with HeLa Kyoto [2] (cell cycle stage: G1/S) amounted to 51.5 °C; in the series with HeLa Kyoto [2] (cell cycle stage: mitosis), 51.2 °C. Further, the “solubility change mitosis (log2)” value in the series on HeLa Kyoto [3] is -0.0464. The thermal stability score with HeLa Kyoto [4] (setting [5]) was 1.52; with HeLa Kyoto [4] (cell cycle stage: mitosis) it was 2.24.

Turning to “MAGVGAGPLRAMGRQALLLLALCATGAQGLYFHIGETEKRCFIEEIPDETMVIGNYRTQMWDKQKEVFLPSTPGLGMHVEVKDPDGKVVLSRQYGSEGRFTFTSHTPGDHQICLHSNSTRMALFAGGKLRVHLDIQVGEHANNYPEIAAKDKLTELQLRARQLLDQVEQIQKEQDYQRYREERFRLTSESTNQRVLWWSIAQTVILILTGIWQMRHLKSFFEAKKLV [TMED4]”, in the series on HeLa Kyoto [1], the “solubility in G1/S (log2)” value came to 0.179. Also, the melting temperature was 56 °C in the series on HeLa Kyoto [2] (cell cycle stage: G1/S) and 56.4 °C with HeLa Kyoto [2] (cell cycle stage: mitosis). For the same sequence, in the series with HeLa Kyoto [3], the “solubility change mitosis (log2)” value is -0.0477. The figures for the thermal stability score with HeLa Kyoto [4] (setting [5]) and in the series on HeLa Kyoto [4] (cell cycle stage: mitosis) were 2.03 and 0.764, respectively.
